{"source": "paper doi:10.1101/2025.03.31.646278", "target": "HPV16 L1 pentamer (deletion construct of the major capsid protein L1) (human papillomavirus type 16)", "test": "cryo-EM structure", "data": [{"substance": "HPV16 L1 pentamer (deletion construct of the major capsid protein L1) (domain or fragment)", "values": [{"measurement": "stoichiometry N (protomers per pentamer)", "value": 5}]}]}
